According to US20140087995A1 (published 2014):
Numbered stars: 1 amine (or outer) side, 2 acyl side, 3 side chain; on linkers, the order of the positions; unused ones are H or OH. Bridge positions count the residues as written; N and C are the ends. Side chains are listed from the residue outwards. Ends that are not written are not given here. * marks the point of attachment. C20 diacid = O=C(O)CCCCCCCCCCCCCCCCCCC(=O)*; γGlu = O=C(O)[C@H](CCC(=O)[*:2])N[*:1]; AEEA = NCCOCCOCC(=O)O

T1: rat calcitonin receptor (rat, UniProt P32214 25-516)
T1 construct: whole, on cells; Used as membranes prepared from the transfected cells; also called rCTR; rCT
T1 sequence (looked up): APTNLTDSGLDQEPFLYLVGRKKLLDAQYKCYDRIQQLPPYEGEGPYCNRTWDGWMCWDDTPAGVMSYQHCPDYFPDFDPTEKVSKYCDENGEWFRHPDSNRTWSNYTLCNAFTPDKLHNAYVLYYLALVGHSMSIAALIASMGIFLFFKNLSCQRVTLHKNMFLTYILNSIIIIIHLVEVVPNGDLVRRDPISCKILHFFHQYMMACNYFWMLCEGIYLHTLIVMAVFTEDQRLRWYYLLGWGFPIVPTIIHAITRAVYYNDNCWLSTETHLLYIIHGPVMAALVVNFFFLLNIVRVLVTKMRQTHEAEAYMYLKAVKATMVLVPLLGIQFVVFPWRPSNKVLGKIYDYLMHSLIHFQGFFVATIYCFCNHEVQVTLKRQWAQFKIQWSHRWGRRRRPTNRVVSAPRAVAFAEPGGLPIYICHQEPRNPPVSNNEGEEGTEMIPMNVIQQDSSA

T2: human calcitonin receptor (human, UniProt P30988 25-474)
T2 construct: whole, on cells; Used as membranes prepared from the transfected cells; also called hCTR; hCT
T2 sequence (looked up): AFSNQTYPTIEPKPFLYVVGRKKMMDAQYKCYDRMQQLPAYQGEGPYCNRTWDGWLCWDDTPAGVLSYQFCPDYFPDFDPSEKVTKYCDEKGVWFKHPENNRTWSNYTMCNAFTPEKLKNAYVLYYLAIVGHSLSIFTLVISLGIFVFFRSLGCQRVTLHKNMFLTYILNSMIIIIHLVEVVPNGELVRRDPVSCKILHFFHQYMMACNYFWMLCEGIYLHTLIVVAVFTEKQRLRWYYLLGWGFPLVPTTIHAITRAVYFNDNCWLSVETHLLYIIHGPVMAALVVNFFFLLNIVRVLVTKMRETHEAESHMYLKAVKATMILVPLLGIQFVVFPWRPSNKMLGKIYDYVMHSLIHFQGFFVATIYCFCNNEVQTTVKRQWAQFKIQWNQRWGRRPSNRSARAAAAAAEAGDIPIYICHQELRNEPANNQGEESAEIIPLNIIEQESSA

B1: N^ε1-[2-[2-[2-[[(4S)-4-carboxy-4-(19-carboxynonadecanoylamino)butanoyl]amino]ethoxy]ethoxy]acetyl]-[Arg17,Pro21,Pro27,His34]-h-amylin (peptide)
peptide: K([AEEA-γGlu-C20 diacid])CNTATCATQRLANFLRHSSPNFGAIPSSTNVGHNTY-NH2
modifications: disulfide 2-7; N-terminus assumed
SMILES: CC[C@H](C)[C@H](NC(=O)[C@H](C)NC(=O)CNC(=O)[C@H](Cc1ccccc1)NC(=O)[C@H](CC(N)=O)NC(=O)[C@@H]1CCCN1C(=O)[C@H](CO)NC(=O)[C@H](CO)NC(=O)[C@H](Cc1c[nH]cn1)NC(=O)[C@H](CCCNC(=N)N)NC(=O)[C@H](CC(C)C)NC(=O)[C@H](Cc1ccccc1)NC(=O)[C@H](CC(N)=O)NC(=O)[C@H](C)NC(=O)[C@H](CC(C)C)NC(=O)[C@H](CCCNC(=N)N)NC(=O)[C@H](CCC(N)=O)NC(=O)[C@@H](NC(=O)[C@H](C)NC(=O)[C@@H]1CSSC[C@H](NC(=O)[C@@H](N)CCCCNC(=O)COCCOCCNC(=O)CC[C@H](NC(=O)CCCCCCCCCCCCCCCCCCC(=O)O)C(=O)O)C(=O)N[C@@H](CC(N)=O)C(=O)N[C@@H]([C@@H](C)O)C(=O)N[C@@H](C)C(=O)N[C@@H]([C@@H](C)O)C(=O)N1)[C@@H](C)O)C(=O)N1CCC[C@H]1C(=O)N[C@@H](CO)C(=O)N[C@@H](CO)C(=O)N[C@H](C(=O)N[C@@H](CC(N)=O)C(=O)N[C@H](C(=O)NCC(=O)N[C@@H](Cc1c[nH]cn1)C(=O)N[C@@H](CC(N)=O)C(=O)N[C@H](C(=O)N[C@@H](Cc1ccc(O)cc1)C(N)=O)[C@@H](C)O)C(C)C)[C@@H](C)O
notes: Analogue of human amylin; disulfide and C-terminal amide as told for h-amylin; also called compound 76
B2: N^ε1-[2-[2-[2-[[(4S)-4-carboxy-4-(19-carboxynonadecanoylamino)butanoyl]amino]ethoxy]ethoxy]acetyl]-[His14,Arg17,Pro21,Pro27,Arg34]-h-amylin (peptide)
peptide: K([AEEA-γGlu-C20 diacid])CNTATCATQRLAHFLRHSSPNFGAIPSSTNVGRNTY-NH2
modifications: disulfide 2-7; N-terminus assumed
SMILES: CC[C@H](C)[C@H](NC(=O)[C@H](C)NC(=O)CNC(=O)[C@H](Cc1ccccc1)NC(=O)[C@H](CC(N)=O)NC(=O)[C@@H]1CCCN1C(=O)[C@H](CO)NC(=O)[C@H](CO)NC(=O)[C@H](Cc1c[nH]cn1)NC(=O)[C@H](CCCNC(=N)N)NC(=O)[C@H](CC(C)C)NC(=O)[C@H](Cc1ccccc1)NC(=O)[C@H](Cc1c[nH]cn1)NC(=O)[C@H](C)NC(=O)[C@H](CC(C)C)NC(=O)[C@H](CCCNC(=N)N)NC(=O)[C@H](CCC(N)=O)NC(=O)[C@@H](NC(=O)[C@H](C)NC(=O)[C@@H]1CSSC[C@H](NC(=O)[C@@H](N)CCCCNC(=O)COCCOCCNC(=O)CC[C@H](NC(=O)CCCCCCCCCCCCCCCCCCC(=O)O)C(=O)O)C(=O)N[C@@H](CC(N)=O)C(=O)N[C@@H]([C@@H](C)O)C(=O)N[C@@H](C)C(=O)N[C@@H]([C@@H](C)O)C(=O)N1)[C@@H](C)O)C(=O)N1CCC[C@H]1C(=O)N[C@@H](CO)C(=O)N[C@@H](CO)C(=O)N[C@H](C(=O)N[C@@H](CC(N)=O)C(=O)N[C@H](C(=O)NCC(=O)N[C@@H](CCCNC(=N)N)C(=O)N[C@@H](CC(N)=O)C(=O)N[C@H](C(=O)N[C@@H](Cc1ccc(O)cc1)C(N)=O)[C@@H](C)O)C(C)C)[C@@H](C)O
notes: Analogue of human amylin; disulfide and C-terminal amide as told for h-amylin; also called compound 84
B3: N^ε1-[2-[2-[2-[[(4S)-4-carboxy-4-(19-carboxynonadecanoylamino)butanoyl]amino]ethoxy]ethoxy]acetyl]-[His14,Arg17,Pro21,Pro27,His34]-h-amylin (peptide)
peptide: K([AEEA-γGlu-C20 diacid])CNTATCATQRLAHFLRHSSPNFGAIPSSTNVGHNTY-NH2
modifications: disulfide 2-7; N-terminus assumed
SMILES: CC[C@H](C)[C@H](NC(=O)[C@H](C)NC(=O)CNC(=O)[C@H](Cc1ccccc1)NC(=O)[C@H](CC(N)=O)NC(=O)[C@@H]1CCCN1C(=O)[C@H](CO)NC(=O)[C@H](CO)NC(=O)[C@H](Cc1c[nH]cn1)NC(=O)[C@H](CCCNC(=N)N)NC(=O)[C@H](CC(C)C)NC(=O)[C@H](Cc1ccccc1)NC(=O)[C@H](Cc1c[nH]cn1)NC(=O)[C@H](C)NC(=O)[C@H](CC(C)C)NC(=O)[C@H](CCCNC(=N)N)NC(=O)[C@H](CCC(N)=O)NC(=O)[C@@H](NC(=O)[C@H](C)NC(=O)[C@@H]1CSSC[C@H](NC(=O)[C@@H](N)CCCCNC(=O)COCCOCCNC(=O)CC[C@H](NC(=O)CCCCCCCCCCCCCCCCCCC(=O)O)C(=O)O)C(=O)N[C@@H](CC(N)=O)C(=O)N[C@@H]([C@@H](C)O)C(=O)N[C@@H](C)C(=O)N[C@@H]([C@@H](C)O)C(=O)N1)[C@@H](C)O)C(=O)N1CCC[C@H]1C(=O)N[C@@H](CO)C(=O)N[C@@H](CO)C(=O)N[C@H](C(=O)N[C@@H](CC(N)=O)C(=O)N[C@H](C(=O)NCC(=O)N[C@@H](Cc1c[nH]cn1)C(=O)N[C@@H](CC(N)=O)C(=O)N[C@H](C(=O)N[C@@H](Cc1ccc(O)cc1)C(N)=O)[C@@H](C)O)C(C)C)[C@@H](C)O
notes: Analogue of human amylin; disulfide and C-terminal amide as told for h-amylin; also called compound 80
B4: N^ε1-[2-[2-[2-[[(4S)-4-carboxy-4-(19-carboxynonadecanoylamino)butanoyl]amino]ethoxy]ethoxy]acetyl]-[Gly14,Arg17,Pro21,Pro27,Pro31]-h-amylin (peptide)
peptide: K([AEEA-γGlu-C20 diacid])CNTATCATQRLAGFLRHSSPNFGAIPSSTPVGSNTY-NH2
modifications: disulfide 2-7; N-terminus assumed
SMILES: CC[C@H](C)[C@H](NC(=O)[C@H](C)NC(=O)CNC(=O)[C@H](Cc1ccccc1)NC(=O)[C@H](CC(N)=O)NC(=O)[C@@H]1CCCN1C(=O)[C@H](CO)NC(=O)[C@H](CO)NC(=O)[C@H](Cc1c[nH]cn1)NC(=O)[C@H](CCCNC(=N)N)NC(=O)[C@H](CC(C)C)NC(=O)[C@H](Cc1ccccc1)NC(=O)CNC(=O)[C@H](C)NC(=O)[C@H](CC(C)C)NC(=O)[C@H](CCCNC(=N)N)NC(=O)[C@H](CCC(N)=O)NC(=O)[C@@H](NC(=O)[C@H](C)NC(=O)[C@@H]1CSSC[C@H](NC(=O)[C@@H](N)CCCCNC(=O)COCCOCCNC(=O)CC[C@H](NC(=O)CCCCCCCCCCCCCCCCCCC(=O)O)C(=O)O)C(=O)N[C@@H](CC(N)=O)C(=O)N[C@@H]([C@@H](C)O)C(=O)N[C@@H](C)C(=O)N[C@@H]([C@@H](C)O)C(=O)N1)[C@@H](C)O)C(=O)N1CCC[C@H]1C(=O)N[C@@H](CO)C(=O)N[C@@H](CO)C(=O)N[C@H](C(=O)N1CCC[C@H]1C(=O)N[C@H](C(=O)NCC(=O)N[C@@H](CO)C(=O)N[C@@H](CC(N)=O)C(=O)N[C@H](C(=O)N[C@@H](Cc1ccc(O)cc1)C(N)=O)[C@@H](C)O)C(C)C)[C@@H](C)O
notes: Analogue of human amylin; disulfide and C-terminal amide as told for h-amylin; also called compound 71

Biological target: T1, rat calcitonin receptor
Assay: SPA competition with 125I-calcitonin, membranes with rat calcitonin receptor (Assay VIII)

IC50 [nM]	Binder
38.9	B1
477	B2
60.4	B3
44.8	B4

Biological target: T1, rat calcitonin receptor
Assay: ratio of binding IC50 at rat calcitonin receptor to IC50 at rat amylin receptor (reference)

Ratio rCT/rAmylin binding	Binder
56.8	B1
94.3	B2
36.2	B3
162	B4

Biological target: T2, human calcitonin receptor
Assay: ratio of binding IC50 at human calcitonin receptor to IC50 at human amylin receptor (reference)
Method: The resulting pellet was resuspended, homogenized and centrifuged (20.000 rpm, 15 min) in a buffer containing 20 mM Na-HEPES and 0.1 mM EDTA (pH 7.4, buffer 2). The resulting pellet was resuspended in buffer 2 and protein concentration was measured (BCA protein Assay, Pierce). The homogenate was kept cold during the whole procedure. The membranes were kept at −80° C. until use. The assay was performed in a 384 well Optiplate (PerkinElmer) in a total volume of 40 ul. Membranes were mixed with SPA beads. Final concentration of membranes 35 ng/μL final and SPA beads was 0.05 mg/well. Test-compounds were dissolved in DMSO and further diluted in assay buffer (50 mM Hepes, pH 7.4, 1 mM CaCl2, 5 mM MgCl₂, 0.1% OA and 0.02% Tween20). […] The final mixture was incubated with shaking at 400 rpm for 120 min at 25° C. prior to centrifugation (1500 rpm, 10 min). Samples were analyzed on TopCounter™ (Packard). The IC₅₀ was calculated using (one site binding competition analysis) GraphPad Prism5 as a measure of receptor affinity.
Membranes were prepared in the following way; the cells were rinsed with PBS and incubated with Versene for approximately 5 min before harvesting. The cells were flushed with PBS and the cell-suspension was centrifuged for 5 min at 1000 rpm. Cells were homogenized (Ultrathurrax) in a buffer containing 20 mM Na-HEPES and 10 mM EDTA (pH 7.4) and centrifuged at 20.000 rpm for 15 min. The resulting pellet was resuspended, homogenized and centrifuged (20.000 rpm, 15 min) in a buffer containing 20 mM Na-HEPES and 0.1 mM EDTA (pH 7.4, buffer 2). The resulting pellet was resuspended in buffer 2 and protein concentration was measured (BCA protein Assay, Pierce). The homogenate was kept cold during the whole procedure. The membranes were kept at −80° C. until use. Assay was performed in a 384 well Optiplate (PerkinElmer) in a total volume of 40 ul. Membranes were mixed with SPA beads.

Ratio hCT/hAmylin binding	Binder
80	B1
120	B2
68.1	B3
32	B4
